Assay: OPTIMIZE-1 safety and tolerability (AEs, DLTs, RP2D; CTCAE v5.0)
Type: in vivo
Experimental: Two dose levels, 450 μg/kg and 900 μg/kg, of mitazalimab were planned to be administered in combination with mFOLFIRINOX in Part 1. During the first treatment cycle (the first 21 days) for each patient, mitazalimab was administered on Day 1 and Day 10 and mFOLFIRINOX infusion started on Day 8. During the following 14-day treatment cycles, mFOLFIRINOX was administered on Day 1 and mitazalimab on Day 3 of each cycle, see FIG. 3. In case the number of DLTs for a dose level fulfilled the stop criteria, see Table 3 Escalation rules based on number of patients with DLTs, at the lowest dose level of mitazalimab, the chemotherapy mFOLFIRINOX could be exchanged to the chemotherapy gemcitabine plus nab-paclitaxel, as illustrated in FIG. 2. If changing the chemotherapy from mFOLFIRINOX to gemcitabine plus nab-paclitaxel, see dosage schedule in Example 5.
The dose escalation in Part 1 follows a BOIN design with at least 3 evaluable patients per dose level. According to the BOIN design, each time a cohort of patients has been completed, a decision is made whether the next cohort should remain on the same dose, escalate to the next higher dose level or de-escalate to the next lower dose level, according to the decision rules presented in Table 3 below. A range of 3-9 patients was included at each dose level. In this study, the de-escalation from 450 μg/kg mitazalimab in combination with mFOLFIRINOX was a change of chemotherapy to gemcitabine plus nab-paclitaxel as previously described.
Mitazalimab in combination with mFOLFIRINOX: The DLT evaluation period is defined as the time from the first dose of mitazalimab (Day 1) until Day 21 in the first treatment cycle (Cycle 1). Mitazalimab in combination with gemcitabine plus nab-paclitaxel: The DLT evaluation period is defined as the time from the first dose of mitazalimab (Day 1) until Day 28 within the first treatment cycle of 35 days (Cycle 1). This period enabled the DRC to evaluate for early safety of mitazalimab together with the chemotherapy combination.
The same DLT criteria applied for mitazalimab in combination with mFOLFIRINOX and gemcitabine plus nab-paclitaxel. A DLT was considered related to study treatment unless there is a clear, well-documented, alternative explanation for the adverse event (AE). AEs that meet the above criteria but occur after the DLT evaluation period were not defined as DLTs, unless the onset of the event was during the DLT evaluation period. The event could be reported as AEs/Serious adverse events (SAEs), as applicable.
Number or patients experiencing AEs and number of events were summarized by SOC and preferred term. In addition, the following AEs were presented: • Incidence of DLT (Part 1); • AEs Grade 3 or higher; • Serious AEs; • AEs leading to discontinuation of study treatment; and • AEs leading to death.
The safety set comprised all patients that received any study treatment (mitazalimab) and was used for all endpoints related to the safety objectives.
The objective of the first (Phase 1b) part of the study was to determine the RP2D of mitazalimab+mFOLFIRINOX. Mitazalimab was escalated from 450 μg/kg to 900 μg/kg following a Bayesian optimal interval design with at least 3 patients enrolled per dose level. In the first 21-day treatment cycle (Dose Limiting Toxicity assessment period), mitazalimab was administered intravenously on days 1 and 10 and mFOLFIRINOX starts on day 8. In the second and subsequent cycles, treatment followed a 14-day cycle schedule where mitazalimab was administered 2 days after mFOLFIRINOX.

B1: Mitazalimab: agonistic, human monoclonal (IgG1) antibody targeting CD40 (antibody, chains of the INN, looked up, V domains shown)
VH: EVQLLESGGGLVQPGGSLRLSCAASGFTFSTYGMHWVRQAPGKGLEWLSYISGGSSYIFYADSVRGRFTISRDNSENALYLQMNSLRAEDTAVYYCARILRGGSGMDLWGQGTLVTVSS
VL: QSVLTQPPSASGTPGQRVTISCTGSSSNIGAGYNVYWYQQLPGTAPKLLIYGNINRPSGVPDRFSGSKSGTSASLAISGLRSEDEADYYCAAWDKSISGLVFGGGTKLTVL
- AESIs (in vivo): None
- DLTs (in vivo): G3 Headache
- DLTs, % (in vivo): (9.1) %
- Discontinued treatment: Unacceptable toxicity, percentage of patients (in vivo): (11.6) %
- Discontinued treatment: Unacceptable toxicity, percentage relative to number discontinued (in vivo): 15.4%
- Grade 1 or 2 TEAEs, % (in vivo): 81.8%
- Grade 3 TEAEs, % (in vivo): 36.4%
- Mitazalimab Related Adverse Events: Grade 1 or 2 TEAEs, % (in vivo): (72.7) %
- Mitazalimab Related Adverse Events: Grade 3 TEAEs, % (in vivo): (9.1) %
- Mitazalimab Related Adverse Events: patients with any TEAEs, % (in vivo): (72.7) %
- Mitazalimab-related Grade 1-2 Fatigue (in vivo): 3
- Mitazalimab-related Grade 1-2 Fever or similar (in vivo): 6
- Mitazalimab-related Grade 3 Fatigue (in vivo): 2
- Mitazalimab-related Grade 3 Headache (in vivo): 1
- Mitazalimab-related Grade 3 Hypokalemia (in vivo): 1
- Patients with any TEAEs, % (in vivo): 81.8%
- Mitazalimab-related Grade 1-2 Flu/muscle ache (of 11 patients at 2 dose levels): 5

Source: patent US20260055200A1, “COMBINATION THERAPIES” (Alligator Bioscience AB, priority 2022, published 2026)
